Measurements as given in patent publication US20110305703A1, “ISOLATED VEGF-C AND VEGF-D PEPTIDES AND USES THEREOF” (Vegenics Pty Limited, priority 2008, published 2011).
Positions count from the first letter of the chain named. Names may count otherwise.

B1: E148S: VEGF-DΔNΔC variant with mutation E148S (protein)
chain: DYKDDDDKFYDIETLKVIDEEWQRTQCSPRETCVEVASELGKSTNTFFKPPCVNVFRCGGCCNSESLICMNTSTSYISKQLFEISVPLTSVPELVPVKVANHTGCKCLPTAPRHPYS
B2: E148S and S150G double mutation: VEGF-DΔNΔC variant containing both E148S and S150G (VEGF-C residues) (protein)
chain: B1 chain with S66G
B3: S150G/L151V: VEGF-DΔNΔC variant with double mutation S150G/L151V (mouse residues) (protein)
chain: MYREWVVVNVFMMLYVQLVQGSSNEHGPVKRSSQSTLERSEQQIRAASSLEELLRITHSEDWKLWRCRLRLKSFTSMDSRSASHRSTRFAATFYDIETLKVIDEEWQRTQCSPRETCVEVASELGKSTNTFFKPPCVNVFRCGGCCNEEGVICMNTSTSYISKQLFEISVPLTSVPELVPVKVANHTGCKCLPTAPRHPYSIIRRSIQIPEEDRCSHSKKLCPIDMLWDSNKCKCVLQEENPLAGTEDHSHLQEPALCGPHMMFDEDRCECVCKTPCPKDLIQHPKNCSCFECKESLETCCQKHKLFHPDTCSCEDRCPFHTRPCASGKTACAKHCRFPKEKRAAQGPHSRKNP

System: VDnmAb
Test: Western blot of conditioned media containing VEGF-DΔNΔC variants probed with VDnmAb
Type: binding
Conditions: conditioned media of 293-F cells; in comparison to VEGF-DΔNΔC
From the text: Site-directed mutagenesis. DNA encoding VEGF-DΔNΔC, a form of mature human VEGF-D tagged at the N-terminus with the FLAG octapeptide (FIG. 11; SEQ ID NO: 145), was subjected to site-directed mutagenesis by PCR to generate VEGF-DΔNΔC variants. Mutations were introduced by amplification with the following primers: N147Q with 5'-[…] NO: 146) and 5'-[…] with 5'-[…] NO: 148) and 5'-[…] with 5'-[…] NO: 150) and 5'-[…] with 5'-[…] NO: 152) and 5'-[…] with 5'-[…] NO: 154) and 5'-[…] with 5'-[…] NO: 156) and 5'-[…] with 5'-[…] NO: 158) and 5'-[…] NO: 159) (FIG. 12). The desired mutations, as well as the absence of any unwanted mutations, in the resulting DNA fragments were confirmed by nucleotide sequencing. Expression of VEGF-DΔNΔC variants. Plasmids containing DNA encoding VEGF-DΔNΔC or its variants were used for transient transfection of 293-F cells with the FreeStyle MAX 293 Expression System according to manufacturer's instructions (Invitrogen). Cells expressing each variant were cultured in serum-free medium, and 30 ml of conditioned media was collected 7 days post-transfection and used for analysis. Western Blot Analysis. Conditioned media containing different variants of VEGF-DΔNΔC were resolved by SDS-PAGE, transferred to nitrocellulose membrane, probed with M2 anti-FLAG or VDnmAb antibodies labeled with IRDye 800CW according to manufacturer's instructions (LI-COR), and detected with an Odyssey Infrared Imaging System (LI-COR).

Molecule	VDnmAb binding to VEGF-DΔNΔC variant in Western blot
B1	complete loss of VDnmAb binding
B2	complete loss of VDnmAb binding
B3	complete loss of VDnmAb binding
